From paper PMC10500059, “Allosteric activation of RhlB by RNase E induces partial duplex opening in substrate RNA” (Frontiers in Molecular Biosciences, 2023) come the findings set out here.

For series [1], the target named is T1, RhlB (E. coli DEAD-box RNA helicase), wild type (E. coli) (UniProt P0A8J8).
T1 sequence: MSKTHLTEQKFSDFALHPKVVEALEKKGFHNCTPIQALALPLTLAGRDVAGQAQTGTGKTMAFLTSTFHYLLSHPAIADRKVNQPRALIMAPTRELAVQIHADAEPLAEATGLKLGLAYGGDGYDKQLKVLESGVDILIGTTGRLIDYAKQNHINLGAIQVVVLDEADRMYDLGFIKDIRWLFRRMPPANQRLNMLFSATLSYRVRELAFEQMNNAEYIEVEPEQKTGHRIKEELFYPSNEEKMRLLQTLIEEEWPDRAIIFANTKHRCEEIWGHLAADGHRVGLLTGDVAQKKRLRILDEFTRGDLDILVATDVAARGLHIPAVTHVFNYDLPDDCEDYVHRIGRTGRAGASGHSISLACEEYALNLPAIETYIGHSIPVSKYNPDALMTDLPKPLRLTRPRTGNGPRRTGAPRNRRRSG

In series [2] the target is T1, RhlB (E. coli DEAD-box RNA helicase), wild type (E. coli). This is another data set of the same source.
For the next series, the target named is RhlB;RNase E (694-790) (Escherichia coli;Escherichia coli, UniProt P0A8J8;P21513 1-421;694-790, |). The series can be described thus: NMR (1H imino titration); no ATP; 4.5 mM Mg2+; NMR: 150 mM KCl, 25 mM Tris/HCl, 5 mM DTT, 4.5 mM MgCl2, pH 8.3, 288 K, 100 µM RNA; EMSA: 150 mM NaCl, 25 mM Tris, 1.5 mM MgCl2, 5 mM DTT, 10% glycerol, pH 8.3, 4 C, 1.5 µM RNA. To be noted: protein: recombinant;recombinant, tags: C-terminal TEV site (ENLYFQG) + 6xHis, His-tag removed by TEV, site remnant left;N-terminal 6xHis-TEV, purified analogously (tag cleaved), copies: 1;1. (Mobility shift assays separate free from complexed probe on a gel.)

The target of a further series is T2, RhlB (Escherichia coli, UniProt P0A8J8 1-421).
T2 sequence: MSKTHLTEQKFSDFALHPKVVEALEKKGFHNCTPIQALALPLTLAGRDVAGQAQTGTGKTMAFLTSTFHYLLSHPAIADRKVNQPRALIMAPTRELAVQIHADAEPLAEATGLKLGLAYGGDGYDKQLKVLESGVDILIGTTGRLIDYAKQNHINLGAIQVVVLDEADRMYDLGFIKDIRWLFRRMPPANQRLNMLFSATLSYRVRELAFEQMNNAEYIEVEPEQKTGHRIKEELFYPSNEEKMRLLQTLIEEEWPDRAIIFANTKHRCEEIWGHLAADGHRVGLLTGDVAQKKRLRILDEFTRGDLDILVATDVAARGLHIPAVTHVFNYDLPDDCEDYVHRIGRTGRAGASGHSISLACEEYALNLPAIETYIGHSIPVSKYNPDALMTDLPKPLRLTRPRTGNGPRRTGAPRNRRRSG
Described as above. To be noted: protein: recombinant, tags: C-terminal TEV site (ENLYFQG) + 6xHis, His-tag removed by TEV, site remnant left.

Series [3] addresses T3, RhlB (E. coli DEAD-box RNA helicase), wild type (E. coli, UniProt P0A8J8 1-421).
T3 sequence (looked up): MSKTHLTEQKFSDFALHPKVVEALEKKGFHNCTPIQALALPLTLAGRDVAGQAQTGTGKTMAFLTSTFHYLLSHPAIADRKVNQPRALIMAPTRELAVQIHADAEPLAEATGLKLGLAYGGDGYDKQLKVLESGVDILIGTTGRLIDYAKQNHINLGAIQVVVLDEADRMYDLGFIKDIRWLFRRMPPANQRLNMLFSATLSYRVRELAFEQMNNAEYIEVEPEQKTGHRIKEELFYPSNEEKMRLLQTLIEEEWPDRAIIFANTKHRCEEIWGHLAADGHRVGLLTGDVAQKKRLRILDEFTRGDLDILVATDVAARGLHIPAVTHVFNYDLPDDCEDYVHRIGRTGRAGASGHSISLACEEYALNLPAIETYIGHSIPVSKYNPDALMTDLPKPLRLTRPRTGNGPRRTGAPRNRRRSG
The series can be described thus: cell-based or functional assay.

Where [4] appears, read: label: none (titration), 3' overhang 8 nt.
[5] abbreviates: label: none (titration), single strand, two weak base pairs under NMR conditions.

As to “RNase E (628-843) (from UniProt P21513 628-843) (domain or fragment)”, in series [1], the ATP turnover rate of RhlB (EnzChek phosphate assay, 2.4 uM RhlB and RNase E fragment, 6 uM RNA substrates of different topology), fold increase over RhlB alone is less than 27 fold. In series [2], this molecule gave an ATP turnover of RhlB with 5'-OV RNA, activation factor over RhlB alone, 31P real-time NMR experiment (400 uM RhlB/RNase E 1:1, 100 uM RNA) of 2 fold and an ATP turnover of RhlB with 5'-OV RNA, activation factor over RhlB alone, phosphate assay of 10 fold.

B1: 3'-OV duplex (dsRNA)
RNA 1: UAGUAACUAAAACAUUAAAUU
RNA 2: GUUUUAGUUACUA
One may read the Kd as the equilibrium constant for the complex coming apart. On to B1, for which the figures for the dissociation constant (Kd) in the series with RhlB;RNase E (694-790) (setting [4]) and with RhlB (setting [4]) were 82.3 ± 27.3 µM and 216 ± 33.7 µM, respectively.

B2: Blunt duplex 21 nt (dsRNA)
RNA 1: UAGUAACUAAAACAUUAAAUU
RNA 2: AAUUUAAUGUUUUAGUUACUA
For the molecule B2, in the series with RhlB (label: none, blunt), the Kd was 162 ± 30.3 µM.

B3: RNase E (694-790) (domain or fragment, E. coli, UniProt P21513 694-790, looked up)
chain: AKALNVEEQSVQETEQEERVRPVQPRRKQRQLNQKVRYEQSVAEEAVVAPVVEETVAAEPIVQEAPAPRTELVKVPLPVVAQTAPEQQEENNADNRD
B3: in series [3], the “ATP turnover rate of RhlB (EnzChek phosphate assay, 2.4 uM RhlB and RNase E fragment, 6 uM RNA substrates of different topology), fold increase over RhlB alone” value was not above 6 fold.

Turning to UAGUAACUAAAACAUUAAAUU (ssRNA) [21 nt single strand], the Kd with RhlB;RNase E (694-790) (setting [5]) came to 264.5 ± 1 µM; in the series with RhlB (setting [5]) it was 94.9 ± 59.2 µM.

B4: Blunt duplex 13 nt (dsRNA)
RNA 1: UAGUAACUAAAAC
RNA 2: GUUUUAGUUACUA
In the case of B4, the equilibrium dissociation constant (Kd) in the series with RhlB;RNase E (694-790) (label: none, blunt) worked out at 488 ± 40.5 µM; in the series with RhlB (label: none, blunt), 155 ± 33.7 µM.
